According to article PMC6011117, “Comparative Evaluation of Radioiodine and Technetium-Labeled DARPin 9_29 for Radionuclide Molecular Imaging of HER2 Expression in Malignant Tumors” (Contrast Media & Molecular Imaging, 2018):

B1: [125I]I-DARPin 9_29 (designed binder)
chain: MDLGKKLLEAARAGQDDEVRILMANGADVNAHDFYGITPLHLAANFGHLEIVEVLLKHGADVNAFDYDNTPLHLAADAGHLEIVEVLLKYGADVNASDRDGHTPLHLAAREGHLEIVEVLLKNGADVNAQDKFGKTAFDISIDNGNEDLAEILQKLAAALE
modifications: iodine-125 label attached to tyrosine (direct radioiodination)
notes: designed ankyrin repeat protein 9_29 against HER2; also called radioiodinated DARPin 9_29; source: E. coli BL21(DE3), purified (HisTrap HP, MonoQ); directly radioiodinated with chloramine T, purified on NAP-5; not shown: His6, C-terminal, kept
B2: [99mTc]Tc(CO)3-DARPin 9_29 (designed binder)
chain: MDLGKKLLEAARAGQDDEVRILMANGADVNAHDFYGITPLHLAANFGHLEIVEVLLKHGADVNAFDYDNTPLHLAADAGHLEIVEVLLKYGADVNASDRDGHTPLHLAAREGHLEIVEVLLKNGADVNAQDKFGKTAFDISIDNGNEDLAEILQKLAAALE
modifications: [99mTc]Tc(CO)3 chelated by the C-terminal hexahistidine tag
notes: designed ankyrin repeat protein 9_29 against HER2; also called 99mTc(CO)3-DARPin 9_29; [99mTc]Tc-DARPin 9_29; source: E. coli BL21(DE3), purified (HisTrap HP, MonoQ); labelled with technetium-99m tricarbonyl, purified on NAP-5; not shown: His6, C-terminal, kept

Molecular target: T1, human epidermal growth factor receptor 2 (HER2) (human (endogenous in SKOV-3, BT474, …, UniProt P04626 23-1255))
T1 construct: human epidermal growth factor receptor 2 (HER2), endogenous on the cell lines SKOV-3, BT474 and DU145; also called HER2 receptor; source: endogenous, on living SKOV-3, BT474 and DU145 cells
Experiment: radioligand binding; LigandTracer, real-time association and dissociation on living SKOV-3 cells at room temperature; radioconjugate at 1, 4 and 8 nM; TraceDrawer fit with a 1:2 binding model
Conditions: one partner purified

Binder	KD of the strongest interaction (1:2 binding model) [nM]	KD of the weaker interaction (1:2 binding model) [nM]
B1	0.362 ± 0.13	7.7 ± 2.8
B2	0.439 ± 0.156	9.1 ± 2.7
